US20050026839A1 (GENERAL HOSPITAL, published 2005)
Read-outs that look alike come from different tables or passages of the source. Square brackets hold non-standard residues; d marks the D form. Ends that are not written are not given here. hArg = N=C(N)NCCCC[C@H](N)C(=O)O; Nle = CCCC[C@H](N)C(=O)O; Aib = CC(C)(N)C(=O)O

T1: truncated human P1R deleted for residues (24-181) (hP1R-delNt) (human, UniProt Q03431 182-593)
T1 sequence (looked up): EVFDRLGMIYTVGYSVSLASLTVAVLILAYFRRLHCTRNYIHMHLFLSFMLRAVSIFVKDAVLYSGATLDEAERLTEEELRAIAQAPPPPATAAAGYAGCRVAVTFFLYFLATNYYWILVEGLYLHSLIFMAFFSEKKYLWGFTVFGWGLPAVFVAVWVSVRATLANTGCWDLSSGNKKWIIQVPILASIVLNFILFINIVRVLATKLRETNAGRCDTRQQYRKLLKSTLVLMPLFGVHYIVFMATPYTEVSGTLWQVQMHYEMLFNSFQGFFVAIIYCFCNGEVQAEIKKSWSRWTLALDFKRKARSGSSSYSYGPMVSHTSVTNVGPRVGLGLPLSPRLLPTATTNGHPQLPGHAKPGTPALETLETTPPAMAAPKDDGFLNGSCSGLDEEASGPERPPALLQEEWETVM

T2: wild-type human PTH/PTHrP receptor (hP1R-WT) (human, UniProt Q03431 27-593)
T2 sequence (looked up): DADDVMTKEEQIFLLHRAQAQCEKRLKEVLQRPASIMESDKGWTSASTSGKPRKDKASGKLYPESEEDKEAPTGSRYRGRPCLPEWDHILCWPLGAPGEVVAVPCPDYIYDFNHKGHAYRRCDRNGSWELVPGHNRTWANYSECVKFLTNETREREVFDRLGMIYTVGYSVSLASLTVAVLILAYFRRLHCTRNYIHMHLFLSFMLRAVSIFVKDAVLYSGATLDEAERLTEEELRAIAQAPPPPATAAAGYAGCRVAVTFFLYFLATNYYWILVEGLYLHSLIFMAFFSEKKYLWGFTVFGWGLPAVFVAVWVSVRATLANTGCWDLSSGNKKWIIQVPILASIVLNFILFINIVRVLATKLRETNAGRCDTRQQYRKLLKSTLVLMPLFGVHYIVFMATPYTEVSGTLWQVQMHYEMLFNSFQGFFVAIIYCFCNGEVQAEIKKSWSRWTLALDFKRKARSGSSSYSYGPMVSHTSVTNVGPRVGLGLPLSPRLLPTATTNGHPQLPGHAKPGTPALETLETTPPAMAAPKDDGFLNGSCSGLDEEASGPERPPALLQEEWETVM

B1: [Aib^1,3,Gln^10]PTH(1-10) (peptide)
peptide: [Aib]V[Aib]EIQLMHQ-NH2
modifications: N-terminus assumed
SMILES: CC[C@H](C)[C@H](NC(=O)[C@H](CCC(=O)O)NC(=O)C(C)(C)NC(=O)[C@@H](NC(=O)C(C)(C)N)C(C)C)C(=O)N[C@@H](CCC(N)=O)C(=O)N[C@@H](CC(C)C)C(=O)N[C@@H](CCSC)C(=O)N[C@@H](Cc1c[nH]cn1)C(=O)N[C@@H](CCC(N)=O)C(N)=O
notes: also called 684 [Aib^1,3, M]PTH (1-10); [Aib^1,3,M]PTH(1-10)
B2: [Aib^5,M]PTH(1-14) (peptide)
peptide: AVAE[Aib]QLMHQ[hArg]AKW-NH2
modifications: N-terminus assumed
SMILES: CSCC[C@H](NC(=O)[C@H](CC(C)C)NC(=O)[C@H](CCC(N)=O)NC(=O)C(C)(C)NC(=O)[C@H](CCC(=O)O)NC(=O)[C@H](C)NC(=O)[C@@H](NC(=O)[C@H](C)N)C(C)C)C(=O)N[C@@H](Cc1c[nH]cn1)C(=O)N[C@@H](CCC(N)=O)C(=O)N[C@@H](CCCCNC(=N)N)C(=O)N[C@@H](C)C(=O)N[C@@H](CCCCN)C(=O)N[C@@H](Cc1c[nH]c2ccccc12)C(N)=O
B3: [Ala^3,12,Gln^10,Har^11,Trp^14]PTH(1-14)amide (peptide)
peptide: AVAEIQLMHQ[hArg]AKW-NH2
modifications: N-terminus assumed
SMILES: CC[C@H](C)[C@H](NC(=O)[C@H](CCC(=O)O)NC(=O)[C@H](C)NC(=O)[C@@H](NC(=O)[C@H](C)N)C(C)C)C(=O)N[C@@H](CCC(N)=O)C(=O)N[C@@H](CC(C)C)C(=O)N[C@@H](CCSC)C(=O)N[C@@H](Cc1c[nH]cn1)C(=O)N[C@@H](CCC(N)=O)C(=O)N[C@@H](CCCCNC(=N)N)C(=O)N[C@@H](C)C(=O)N[C@@H](CCCCN)C(=O)N[C@@H](Cc1c[nH]c2ccccc12)C(N)=O
notes: X = Har; also called [M]PTH(1-14); 621 [M]PTH(1-14)
B4: [Nle^8,21,Tyr^34]PTH(1-34)amide (rat sequence) (peptide)
peptide: AVSEIQLXHNLGKHLASVERXQWLRKKLQDVHNY
modifications: Nle (norleucine) at 8 and 21; C-terminal amide
notes: also called 92 PTH(1-34); 92.5 PTH(1-34)

What was measured:
[1] = target: T1, truncated human P1R deleted for …; assay: cell-based or functional assay
[2] = target: T2, wild-type human PTH/PTHrP receptor …; assay: cell-based or functional assay
[3] = target: T2, wild-type human PTH/PTHrP receptor …; assay: cell-based or functional assay; remark: listed apart in the source
[4] = target: T1, truncated human P1R deleted for …; assay: cell-based or functional assay; remark: listed apart in the source
[5] = target: T2, wild-type human PTH/PTHrP receptor …; assay: competition binding vs 125I-[Aib1,3,M]PTH(1-21), COS-7 cells with hP1R-WT
[6] = target: T1, truncated human P1R deleted for …; assay: competition binding vs 125I-[Aib1,3,M]PTH(1-21), COS-7 cells with hP1R-delNt
Method: (§1) Stock solutions of EGTA/trypsin and antibiotics were from GIBCO; fetal bovine serum was from Hyclone Laboratories (Logan, Utah). […] All cells, in 24-well plates, were treated with fresh media and shifted to 33° C. for 12 to 24 h prior to assay.
(§2) Competition Binding. Binding reactions were performed with HKRK-B28 cells or in COS-7 cells in 24-well plates. The cells were rinsed with 0.5 mL of binding buffer, and then treated successively with 100 μL binding buffer, 100 μL of binding buffer containing various amounts of unlabeled competitor ligand, and 100 μL of binding buffer containing ca. 100,000 cpm of ¹²⁵I-[M]PTH(1-21) or ¹²⁵I-[Aib^{1,3},M]PTH(1-21)} (ca. 26 fmol; final volume=300 μL). Incubations were 4 to 6 h at 4° C., at which time near equilibrium conditions were attained. Cells were then placed on ice, the binding medium was removed, and the monolayer was rinsed three times with 0.5 mL of cold binding buffer. The cells were subsequently lysed with 0.5 mL […] NaOH and counted for radioactivity. For each tracer and in each experiment, the non-specific binding was determined as the radioactivity that bound in the presence of the same unlabeled peptide at a concentration of 1 μM, and was ˜1% of total radioactivity added for each tracer. The maximum specific binding (B₀) was the total radioactivity bound in the absence of competing ligand, corrected for nonspecific binding, and for each tracer, ranged from 8% to 20% of the total radioactivity added. Nonlinear regression was used to calculate binding IC₅₀ values (see below). Scatchard transformations of homologous competition binding data derived from studies with 26 fmol of ¹²⁵I-[Aib^{1,3},M]PTH(1-21) were employed for estimations of apparent equilibrium dissociation constant (kDapps) and total number of ligand binding sites (Bₘₐₓ), assuming a single class of binding sites and equal affinities of the iodinated and non iodinated ligand.

[7] = target: T1, truncated human P1R deleted for …; assay: radioligand binding, COS-7 cells with P1R-delNt
[8] = target: wild-type human PTH/PTHrP receptor (hP1R-WT) (human) (UniProt Q03431); assay: cell-based or functional assay
[9] = target: wild-type human PTH/PTHrP receptor (hP1R-WT) (human) (UniProt Q03431); assay: competition binding, 125I-[M]PTH(1-21) tracer, HKRK-B28 cells
[10] = target: T2, wild-type human PTH/PTHrP receptor …; assay: cell-based or functional assay; remark: listed apart in the source
[11] = target: T2, wild-type human PTH/PTHrP receptor …; assay: competition binding, 125I-[M]PTH(1-21) tracer, HKRK-B28 cells, 4 h at 4 C
Method: as §2
Peptides PTH(1-34) ([Nle^{8,21}, Tyr³⁴]PTH(1-34)amide), [M]PTH(1-14) (M = Ala^{3,12}, Gln¹⁰, Har¹¹, Trp¹⁴), and [M]PTH(1-14 analogs, or C-terminally truncated derivatives thereof, containing α-aminoisobutyric acid (Aib) substitutions at the indicated positions were functionally evaluated in HKRK-B28 cells. “M” in [Aib^{1,3}, M]PTH(1-21) = Nle⁸, Gln¹⁰, Har¹¹, Ala¹², Trp¹⁴, Arg¹⁹ and Tyr²¹. The basal cAMP values (not subtracted) were 4.0 ± 0.1 pmole/well (n = 10). Peptides were based on the rat PTH sequence and were carboxy-amidated. Competition binding analyses were performed with ¹²⁵I-[M]PTH(1-21 )amide (Ala^{1,3}) as tracer for 4 h at 4° C. Data are means (±S.E.M.) Of the number of experiments indiated (n).

[12] = target: T2, wild-type human PTH/PTHrP receptor …; assay: competition binding, 125I-[Aib1,3,M]PTH(1-21) tracer, COS-7 cells expressing hP1R-WT
Method: as §2

[13] = target: T1, truncated human P1R deleted for …; assay: competition binding, 125I-[Aib1,3,M]PTH(1-21) tracer, COS-7 cells expressing hP1R-delNt
Method: as §1, §2

[14] = target: T2, wild-type human PTH/PTHrP receptor …; assay: radioligand binding to HKRK-B28 cells
[15] = target: T2, wild-type human PTH/PTHrP receptor …; assay: cell-based or functional assay; remark: listed apart in the source
[16] = target: T1, truncated human P1R deleted for …; assay: cell-based or functional assay; remark: listed apart in the source

Binder	cAMP EC50 [2]	cAMP EMax(obs.) [2]	cAMP EC50 [3]	cAMP EMax(obs.) [3]	cAMP EC50 [4]	cAMP EMax(obs.) [4]	binding result [6]	further results
[Aib]V[Aib]EIQLMHQ[hArg]AKWLNSMRRVEWLRKKLQDVHNY-NH2 [[Aib^1,3,Gln^10,Har^11,Ala^12,Trp^14,Arg^19,Tyr^34]hPTH(1-34)]	–	–	–	–	–	–	–	cAMP EC50 [1]: 1.9 nM
B1	16000 nM	111 pmole/well	100000 nM	120 pmole/well	53000 nM	84 pmole/well	no binding	binding result [5]: no binding
AVSEIQLMHNLGKH-NH2 (also called 521 PTH(1-14)) [native PTH(1-14) (rat sequence, amide)]	–	–	90000 nM	140 pmole/well	140000 nM	110 pmole/well	no binding	–
AVAEIQL[Nle]HQ[hArg]AKWLASVRRY-NH2 (also: 125I radioiodinated, residue not given here, Tracer radioligand) [^125I-[M]PTH(1-21)]	–	–	–	–	–	–	–	binding result [7]: no binding
B2	–	–	–	–	–	–	–	cAMP EC50 [8]: 66000 nM; cAMP EMax(obs.) [8]: 169 pmole/well; fold reduction in affinity relative to [M]PTH(1-14) [9]: < 10 fold
B3	100 nM	270 pmole/well	49 nM	240 pmole/well	40 nM	220 pmole/well	–	PLC EC50 [3]: 4700 nM; PLC EMAX(obs.) [3]: 3.9 foldxbasal; cAMP EC50 in SaOS-2 cells [10]: 340 nM; IC50 [11]: 13000 nM; IC50 [12]: 20000 nM; IC50 [13]: 17400 nM
AVAEIQL[Nle]HQ[hArg]AKWY-NH2 (also: 125I radiolabel, iodinated residue not given here) [^125I-[Ala^3,12Nle^8Gln^10,Har^11,Trp^14,Tyr^15]PTH(1-15)amide]	–	–	–	–	–	–	–	binding result [14]: no binding
[Aib]V[Aib]EIQLMHNLGKHLNSMERVEWLRKKLQDVHNY-NH2 [[Aib^1,3,Tyr^34]-hPTH(1-34)]	–	–	–	–	–	–	–	cAMP EC50 [15]: 0.67 nM; cAMP EC50 [16]: 43 nM
B4	2.5 nM	280 pmole/well	1.4 nM	240 pmole/well	680 nM	220 pmole/well	no binding	PLC EC50 [3]: 17 nM; PLC EMAX(obs.) [3]: 4.2 foldxbasal; cAMP EC50 in SaOS-2 cells [10]: 0.2 nM; IC50 [11]: 18 nM; IC50 [12]: 12 nM
